Assay results published in the supplement of paper PMC10065799, “High-throughput profiling of sequence recognition by tyrosine kinases and SH2 domains using bacterial peptide display” (eLife, 2023).

Key:
AncSZ = assay: phosphorylation enrichment, bacterial display (enrichment ratio); higher = better substrate or ligand; peptides without Tyr show the background
EPHB1 = EPHB1 (UniProt P54762); assay: as above
EPHB2 = EPHB2 (UniProt P29323); assay: as above
FGFR1 = FGFR1 (UniProt P11362); assay: as above
Sequence of FGFR1 (P11362 whole entry, looked up): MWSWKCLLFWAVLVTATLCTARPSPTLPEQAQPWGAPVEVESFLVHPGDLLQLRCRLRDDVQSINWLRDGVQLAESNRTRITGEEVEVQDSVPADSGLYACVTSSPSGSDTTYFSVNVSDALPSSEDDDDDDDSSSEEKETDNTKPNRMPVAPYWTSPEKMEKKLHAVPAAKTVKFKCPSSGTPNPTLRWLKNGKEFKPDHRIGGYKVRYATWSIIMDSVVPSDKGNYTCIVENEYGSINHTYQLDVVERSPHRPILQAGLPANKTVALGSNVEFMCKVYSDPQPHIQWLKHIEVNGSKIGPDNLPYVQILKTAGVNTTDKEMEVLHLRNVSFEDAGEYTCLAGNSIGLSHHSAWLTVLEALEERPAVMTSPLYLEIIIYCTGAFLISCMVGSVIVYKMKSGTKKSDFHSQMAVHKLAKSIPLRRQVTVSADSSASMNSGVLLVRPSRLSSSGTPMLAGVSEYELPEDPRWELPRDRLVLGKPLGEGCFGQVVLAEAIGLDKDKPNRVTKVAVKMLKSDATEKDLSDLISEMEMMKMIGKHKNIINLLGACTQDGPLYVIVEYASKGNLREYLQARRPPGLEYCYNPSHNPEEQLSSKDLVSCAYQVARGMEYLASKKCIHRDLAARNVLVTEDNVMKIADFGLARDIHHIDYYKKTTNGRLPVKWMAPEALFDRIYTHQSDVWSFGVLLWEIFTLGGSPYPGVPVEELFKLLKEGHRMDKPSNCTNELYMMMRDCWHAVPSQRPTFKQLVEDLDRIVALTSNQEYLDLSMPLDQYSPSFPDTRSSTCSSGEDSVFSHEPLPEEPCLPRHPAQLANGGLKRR

FGFR3 = FGFR3 (UniProt P22607); assay: as above
Sequence of FGFR3 (P22607 whole entry, looked up): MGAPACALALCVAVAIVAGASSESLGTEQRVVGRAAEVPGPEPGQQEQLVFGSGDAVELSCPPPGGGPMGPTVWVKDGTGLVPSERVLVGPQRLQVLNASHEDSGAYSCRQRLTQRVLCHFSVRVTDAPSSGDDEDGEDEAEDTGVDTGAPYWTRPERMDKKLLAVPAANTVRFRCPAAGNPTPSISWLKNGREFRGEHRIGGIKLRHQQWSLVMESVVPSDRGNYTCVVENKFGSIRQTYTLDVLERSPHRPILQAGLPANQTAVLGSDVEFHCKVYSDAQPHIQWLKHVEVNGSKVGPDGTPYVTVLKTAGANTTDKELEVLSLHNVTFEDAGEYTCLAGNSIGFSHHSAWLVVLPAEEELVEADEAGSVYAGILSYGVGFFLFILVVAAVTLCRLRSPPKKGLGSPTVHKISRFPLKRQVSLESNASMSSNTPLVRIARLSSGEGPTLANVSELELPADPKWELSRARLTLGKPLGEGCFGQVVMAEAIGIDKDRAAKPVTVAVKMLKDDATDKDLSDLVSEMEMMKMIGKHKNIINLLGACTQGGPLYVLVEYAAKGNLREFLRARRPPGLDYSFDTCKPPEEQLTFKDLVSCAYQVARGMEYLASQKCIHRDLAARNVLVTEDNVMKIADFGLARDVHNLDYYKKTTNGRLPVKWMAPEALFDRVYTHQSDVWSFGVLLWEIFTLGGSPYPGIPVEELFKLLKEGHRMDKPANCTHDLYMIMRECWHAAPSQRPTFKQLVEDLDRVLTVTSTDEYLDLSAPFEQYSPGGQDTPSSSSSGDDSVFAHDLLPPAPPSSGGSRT

Fer (mouse) = assay: as above
Fes = Fes (UniProt P07332); assay: as above
Fyn = Fyn (UniProt P06241); assay: as above
Sequence of Fyn (P06241 whole entry, looked up): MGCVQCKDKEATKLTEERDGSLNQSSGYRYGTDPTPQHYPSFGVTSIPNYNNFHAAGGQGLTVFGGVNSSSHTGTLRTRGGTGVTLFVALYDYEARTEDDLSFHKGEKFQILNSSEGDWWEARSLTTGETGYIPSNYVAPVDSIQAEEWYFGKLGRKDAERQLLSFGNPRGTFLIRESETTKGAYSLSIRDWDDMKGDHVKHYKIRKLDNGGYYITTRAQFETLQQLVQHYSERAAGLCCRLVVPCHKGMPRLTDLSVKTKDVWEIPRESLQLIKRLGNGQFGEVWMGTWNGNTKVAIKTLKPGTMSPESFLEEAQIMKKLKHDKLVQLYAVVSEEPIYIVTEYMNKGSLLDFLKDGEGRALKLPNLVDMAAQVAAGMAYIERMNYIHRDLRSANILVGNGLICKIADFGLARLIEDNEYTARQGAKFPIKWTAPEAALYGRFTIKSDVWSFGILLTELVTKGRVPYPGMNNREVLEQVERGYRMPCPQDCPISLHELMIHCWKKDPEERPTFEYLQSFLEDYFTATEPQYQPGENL

Hck = Hck (UniProt P08631); assay: as above
Sequence of Hck (P08631 whole entry, looked up): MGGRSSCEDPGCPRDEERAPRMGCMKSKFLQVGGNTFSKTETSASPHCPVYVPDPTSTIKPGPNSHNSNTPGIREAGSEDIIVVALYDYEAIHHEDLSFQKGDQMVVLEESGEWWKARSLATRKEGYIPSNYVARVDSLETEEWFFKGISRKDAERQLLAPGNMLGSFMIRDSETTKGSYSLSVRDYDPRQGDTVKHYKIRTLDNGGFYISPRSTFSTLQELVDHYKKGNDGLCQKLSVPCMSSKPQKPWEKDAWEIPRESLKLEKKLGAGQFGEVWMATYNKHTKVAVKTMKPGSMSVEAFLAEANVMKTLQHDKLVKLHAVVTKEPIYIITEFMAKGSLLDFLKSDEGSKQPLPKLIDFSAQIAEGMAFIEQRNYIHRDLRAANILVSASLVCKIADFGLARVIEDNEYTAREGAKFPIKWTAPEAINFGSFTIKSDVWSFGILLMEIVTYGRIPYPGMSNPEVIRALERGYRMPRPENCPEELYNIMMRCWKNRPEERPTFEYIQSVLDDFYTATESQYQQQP

Jak2 = Jak2 (UniProt O60674); assay: as above
Sequence of Jak2 (O60674 whole entry, looked up): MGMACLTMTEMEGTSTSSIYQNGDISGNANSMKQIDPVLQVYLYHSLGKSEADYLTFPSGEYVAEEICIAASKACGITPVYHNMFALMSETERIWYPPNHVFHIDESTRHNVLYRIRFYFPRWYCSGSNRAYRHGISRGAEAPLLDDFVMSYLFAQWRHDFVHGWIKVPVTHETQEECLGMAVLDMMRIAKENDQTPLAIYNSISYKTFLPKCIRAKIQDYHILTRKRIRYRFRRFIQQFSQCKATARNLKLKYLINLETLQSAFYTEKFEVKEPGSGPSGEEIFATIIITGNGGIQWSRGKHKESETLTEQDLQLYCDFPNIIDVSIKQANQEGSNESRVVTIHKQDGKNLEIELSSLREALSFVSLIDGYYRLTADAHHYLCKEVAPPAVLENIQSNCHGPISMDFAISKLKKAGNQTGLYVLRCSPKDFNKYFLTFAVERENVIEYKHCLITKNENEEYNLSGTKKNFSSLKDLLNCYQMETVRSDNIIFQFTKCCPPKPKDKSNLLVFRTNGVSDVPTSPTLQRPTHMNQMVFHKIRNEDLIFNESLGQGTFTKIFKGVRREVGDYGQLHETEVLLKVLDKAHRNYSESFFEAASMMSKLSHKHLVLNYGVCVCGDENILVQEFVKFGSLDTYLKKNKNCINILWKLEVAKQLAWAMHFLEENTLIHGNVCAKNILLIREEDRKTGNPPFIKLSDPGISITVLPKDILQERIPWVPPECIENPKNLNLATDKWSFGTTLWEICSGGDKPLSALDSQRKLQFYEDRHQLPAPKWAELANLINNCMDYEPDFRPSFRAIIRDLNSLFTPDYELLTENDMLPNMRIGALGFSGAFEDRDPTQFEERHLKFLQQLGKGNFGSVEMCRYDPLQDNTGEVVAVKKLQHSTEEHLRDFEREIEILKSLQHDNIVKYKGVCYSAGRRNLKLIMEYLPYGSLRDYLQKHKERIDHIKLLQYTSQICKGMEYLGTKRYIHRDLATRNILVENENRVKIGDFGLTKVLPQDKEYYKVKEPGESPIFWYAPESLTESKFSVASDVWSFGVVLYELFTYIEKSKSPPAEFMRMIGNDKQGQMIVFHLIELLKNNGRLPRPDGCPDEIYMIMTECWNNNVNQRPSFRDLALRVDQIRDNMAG

MERTK = MERTK (UniProt Q12866); assay: as above
c-Abl (mouse) = assay: as above
c-Src = assay: as above
Grb2 SH2 = Grb2 SH2 (UniProt P62993); assay: SH2 binding enrichment of the phosphorylated peptide, bacterial display (enrichment ratio); higher = better substrate or ligand; peptides without Tyr show the background
SHP2-C SH2 = assay: as above
c-Src SH2 = assay: as above
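For SH2 binding enrichment of the phosphorylated peptide, bacterial display in this document: peptide library displayed on the E. coli surface as eCPX fusions, selected cells deep-sequenced, score is each peptide's frequency after selection divided by its frequency in the input.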
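For phosphorylation enrichment, bacterial display in this document: 11-residue human phosphosite peptides and single-mutation variants displayed on the E. coli surface, counted by deep sequencing, each peptide's frequency after selection divided by its frequency in the unselected input library; frequency after pTyr selection over input frequency; kinase dosed for 20-30% of maximal phosphorylation in three min.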

Sequence of EPHB2 (P29323 whole entry, looked up): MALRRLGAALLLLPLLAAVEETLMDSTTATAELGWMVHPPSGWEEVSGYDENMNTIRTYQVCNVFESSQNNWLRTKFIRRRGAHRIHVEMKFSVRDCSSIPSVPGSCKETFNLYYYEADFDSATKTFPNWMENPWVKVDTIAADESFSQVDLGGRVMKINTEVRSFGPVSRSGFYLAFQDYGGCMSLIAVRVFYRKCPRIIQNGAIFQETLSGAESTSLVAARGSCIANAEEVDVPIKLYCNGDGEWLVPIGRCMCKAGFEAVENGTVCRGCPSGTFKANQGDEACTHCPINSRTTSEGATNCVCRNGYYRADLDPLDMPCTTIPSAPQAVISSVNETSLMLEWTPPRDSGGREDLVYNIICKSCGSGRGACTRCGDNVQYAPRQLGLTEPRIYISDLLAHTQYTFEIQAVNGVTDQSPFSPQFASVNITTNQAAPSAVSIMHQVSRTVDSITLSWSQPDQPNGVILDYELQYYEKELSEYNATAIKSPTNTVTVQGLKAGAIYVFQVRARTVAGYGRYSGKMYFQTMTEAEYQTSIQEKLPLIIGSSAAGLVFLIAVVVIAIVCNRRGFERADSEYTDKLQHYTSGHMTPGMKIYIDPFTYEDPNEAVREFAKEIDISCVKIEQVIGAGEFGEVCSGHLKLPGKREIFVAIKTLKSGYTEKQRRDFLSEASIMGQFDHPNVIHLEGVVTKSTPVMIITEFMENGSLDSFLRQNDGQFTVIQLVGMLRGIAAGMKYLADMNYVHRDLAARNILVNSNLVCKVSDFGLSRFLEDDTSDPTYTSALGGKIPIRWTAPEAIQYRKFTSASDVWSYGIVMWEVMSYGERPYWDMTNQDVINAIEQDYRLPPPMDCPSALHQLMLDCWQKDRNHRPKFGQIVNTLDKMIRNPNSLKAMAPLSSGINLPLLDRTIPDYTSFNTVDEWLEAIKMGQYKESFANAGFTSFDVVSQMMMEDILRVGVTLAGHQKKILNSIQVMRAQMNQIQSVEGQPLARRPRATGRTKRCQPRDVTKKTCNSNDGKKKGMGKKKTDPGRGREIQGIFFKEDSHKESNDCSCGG

SH2 binding enrichment (Grb2 SH2)	SH2 binding enrichment (SHP2-C SH2)	SH2 binding enrichment (c-Src SH2)	Sequence	phosphorylation enrichment (AncSZ)	phosphorylation enrichment (EPHB1)	phosphorylation enrichment (EPHB2)	phosphorylation enrichment (FGFR1)	phosphorylation enrichment (FGFR3)	phosphorylation enrichment (Fer (mouse))	phosphorylation enrichment (Fes)	phosphorylation enrichment (Fyn)	phosphorylation enrichment (Hck)	phosphorylation enrichment (Jak2)	phosphorylation enrichment (MERTK)	phosphorylation enrichment (c-Abl (mouse))	phosphorylation enrichment (c-Src)
0.911	0.729	0.51	EKGEEYGGGGG [TUBA1A_Y451_E447K]	0.847	0.585	0.574	0.578	0.67	0.499	0.855	0.448	0.63	0.578	0.296	0.384	0.293
0.863	0.749	0.463	KPGVNYFFRVS	1.06	0.495	0.472	0.376	0.697	0.41	1.32	0.348	0.479	0.986	0.358	0.73	0.374
1.05	1.44	0.587	GTYVIYVRFSG [FLNB_Y1687_G1691S]	1.26	0.696	0.543	0.447	0.828	0.639	1.3	0.509	0.514	1.31	0.455	0.941	0.532
1.06	0.937	0.517	NPQKSYFIRLY [WAS_Y83]	1.16	0.61	0.637	0.486	0.745	0.542	1.15	0.372	0.452	1.07	0.353	0.724	0.349
0.672	0.787	0.491	SVTSTYSPALN [TP53_Y126_C124S]	0.641	0.437	0.426	0.511	0.398	0.436	0.712	0.432	0.459	0.465	0.379	0.586	0.488
1.06	0.626	0.6	ECKFLYSRKEG [PTPN11_Y263_L261F]	0.969	0.576	0.594	0.495	0.593	0.362	0.939	0.537	0.618	0.849	0.436	0.639	0.423
0.637	0.609	0.369	VVVTKYCKEEL [ATP7B_Y1078_A1074V]	1.08	0.639	0.658	0.58	0.824	0.554	1.37	0.568	0.546	0.968	0.447	0.873	0.492
0.84	0.964	0.56	EGNEQYEGFCV [GRIA3_Y451_R450Q_YF]	1.29	0.962	0.639	0.618	0.822	2.87	1.41	0.726	0.721	1.01	0.832	0.791	0.788
1.08	1.05	0.537	LTPVKYLLSAT [GSDMC_Y26]	0.515	0.585	0.412	0.46	0.508	0.282	0.616	0.396	0.429	0.433	0.425	0.593	0.345
4.29	1.43	0.718	QADVVYVNTQL [MERTK_Y872_I871V]	0.822	0.66	1.17	0.88	0.648	3.51	1.8	0.729	0.729	0.728	0.372	0.631	0.738
0.883	0.788	0.548	KIEGIYARDET [RPL35A_Y34_V33I]	0.887	0.536	0.497	0.585	0.619	0.491	0.919	1.07	1.12	0.663	0.413	0.493	1.09
1.31	1.51	0.89	PPAPRCHHSAV [LZTR1_Y119_Y119C]	1.61	1.17	0.701	0.839	1.21	2.15	2.01	0.921	1.28	1.75	0.566	0.842	0.718
1.87	0.677	1.45	RRDRDYTNLPS [CSF1R_Y923_E920D]	1.15	0.604	0.682	0.815	0.696	0.64	0.893	0.551	0.673	0.639	0.442	1.65	0.545
0.906	0.782	0.537	VIESSYQVAKA [CPT1B_Y534]	0.7	0.454	0.483	0.489	0.404	0.448	0.815	0.457	0.577	0.535	0.44	0.558	0.483
1.02	1.46	0.976	NVGGKYSFLKV [GRM3_Y478_YF]	0.608	0.472	0.378	0.369	0.434	0.357	0.739	0.306	0.446	0.663	0.456	0.476	0.392

Sequence	SH2 binding enrichment (Grb2 SH2)	SH2 binding enrichment (SHP2-C SH2)	SH2 binding enrichment (c-Src SH2)	phosphorylation enrichment (AncSZ)	phosphorylation enrichment (EPHB1)	phosphorylation enrichment (EPHB2)	phosphorylation enrichment (FGFR1)	phosphorylation enrichment (FGFR3)	phosphorylation enrichment (Fer (mouse))	phosphorylation enrichment (Fes)	phosphorylation enrichment (Fyn)	phosphorylation enrichment (Hck)	phosphorylation enrichment (Jak2)	phosphorylation enrichment (MERTK)	phosphorylation enrichment (c-Abl (mouse))	phosphorylation enrichment (c-Src)
YSGDYYRIQGR [DDR2_Y741]	1.01	0.673	0.552	1.82	5.47	2.72	12.1	8.65	0.429	0.846	1.04	1.68	8.46	5.04	1.76	2.31
